± gives the standard deviation of the averaged measurements.

This series concerns ATP. The series can be described thus: switch fluorescence ratio, 500 uM ATP over buffer (Cy3 cluster intensity, sum of 5 cycles each) (fold (ratio)); higher = stronger signal-on switching upon ATP binding; sequences stand for … in TCGTCGGCAGCGTCAGATGTGTATAAGAGACAGTTTTTTTTTTTTTTTTTTTTTTTTT…TC. To be noted: aptamer strand: ATP DNA aptamer (quencher-CACCTGGGGGAGTATTGCGGAGGAAGG + anchor), 100 nM annealed; ATP concentration: 500 uM. In a few lines: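 Clusters carrying Cy3-labelled switching strands on a modified Illumina MiSeq flow-cell were annealed to 100 nM quencher-labelled ATP aptamer and imaged in selection buffer. They were imaged again after 15 min with 500 uM ATP at 22 °C, over five buffer/ATP cycles with NaOH stripping and re-annealing in between. For each cluster, the fluorescence ratio is the summed Cy3 intensity of the target cycles divided by that of the buffer cycles, averaged per switch-domain sequence. Clusters outside 100-1000 RFU were left out.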
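Further: ATP exposure 15 min at 22 °C before imaging.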

As for GTATTTTAGG, the switch fluorescence ratio turned out to be 0.999 ± 0.053.
Consider GTATTTTGCG, for which the switch fluorescence ratio was 1.12 ± 0.26.
As for GTATTTTGGC, the switch fluorescence ratio came out at 1.025 ± 0.0052.
In the case of GTCAACGCCG, the switch fluorescence ratio amounted to 1.02 ± 0.018.
GTCAATTGGA: the switch fluorescence ratio came out at 0.992 ± 0.013.
Consider GTCACACTT, for which the switch fluorescence ratio was 1.01 ± 0.0073.
As to GTCACCAACA, the switch fluorescence ratio was 1.27 ± 0.28.
Next, GTCACGGGCG: 1.006 ± 0.0091; GTCACTTATT: 1.036 ± 0.0058; GTCAGAGCTA: 1.01 ± 0.025.
GTCAGGAGGG: the switch fluorescence ratio is 0.971 ± 0.026.
As for GTCAGGGGGA, the switch fluorescence ratio turned out to be 1.07 ± 0.14.
GTCAGTGTCG: the switch fluorescence ratio came out at 0.962 ± 0.021.
Consider GTCATATGTC, for which the switch fluorescence ratio came out at 1.07 ± 0.051.
Take GTCATCATGG: the switch fluorescence ratio came to 0.986 ± 0.044.
On to GTCCACTGTT, for which the switch fluorescence ratio was determined as 0.996 ± 0.024.
Regarding GTCCGAGAAT, the switch fluorescence ratio is 0.986 ± 0.064.
For GTCCGGGGGC, the switch fluorescence ratio was 1.13 ± 0.04.
As to GTCCGGGTTT, the switch fluorescence ratio worked out at 1.01 ± 0.036.
Consider GTCCTTTTTT, for which the switch fluorescence ratio is 0.97 ± 0.039.
In the case of GTCGAATGGG, the switch fluorescence ratio was found to be 1 ± 0.02.
For GTCGATTTTT, the switch fluorescence ratio was 0.992 ± 0.044.
The figure for GTCGCAAGGG is 1.15 ± 0.021.
GTCGCAGGAG: the switch fluorescence ratio amounted to 1.05 ± 0.011.
Turning to GTCGCATGAG, the switch fluorescence ratio amounted to 1.03 ± 0.05.
The figure for GTCGGAGAGC is 1.04 ± 0.039; for GTCGGGAGGT it is 0.989 ± 0.015.
As to GTCGGGAGTG, the switch fluorescence ratio stood at 0.986 ± 0.065.
Turning to GTCGGGGTAT, the switch fluorescence ratio amounted to 0.991 ± 0.012.
Consider GTCGGGGTCA, for which the switch fluorescence ratio is 0.99653 ± 0.0006.
On to GTCGGGTACA, for which the switch fluorescence ratio came to 1.008 ± 0.0085.
With GTCGGGTTTG, the switch fluorescence ratio turned out to be 0.991 ± 0.014.
GTCGGTGTTG: the switch fluorescence ratio worked out at 0.98952 ± 0.00042.
GTCGTAAGAG: the switch fluorescence ratio amounted to 0.98 ± 0.041.
With GTCGTAGGAT, the switch fluorescence ratio was 0.9915 ± 0.0065.
Turning to GTCGTATGAG, the switch fluorescence ratio worked out at 1.01 ± 0.028.
As to GTCGTCGGCG, the switch fluorescence ratio amounted to 1.02 ± 0.025.
Consider GTCGTCTTTT, for which the switch fluorescence ratio amounted to 1.01 ± 0.012.
Next, GTCGTGCCTG: 1.04 ± 0.15; GTCGTGGCAA: 1.04 ± 0.022.
Take GTCGTGTCTG: the switch fluorescence ratio was 1.004 ± 0.0065.
As for GTCGTGTGGT, the switch fluorescence ratio stood at 0.99 ± 0.045.
With GTCTAACTGC, the switch fluorescence ratio amounted to 0.962 ± 0.033.
Consider GTCTAAGGGA, for which the switch fluorescence ratio is 0.968 ± 0.024.
Next, GTCTATACAT: 0.973 ± 0.028; GTCTATCTCT: 1.013 ± 0.0093; GTCTCAGGTT: 1.04 ± 0.014.
On to GTCTCGGCAT, for which the switch fluorescence ratio was found to be 1.2 ± 0.044.
The figure for GTCTGAGGTT is 0.963 ± 0.015; for GTCTGGGCTG it is 0.986 ± 0.014; for GTCTTGGGTA it is 0.963 ± 0.024.
With GTGAAACGGT, the switch fluorescence ratio is 1.03 ± 0.043.
For the sequence GTGAACATAT, the switch fluorescence ratio came to 1.036 ± 0.0022.
In the case of GTGACAGAGG, the switch fluorescence ratio is 1.02 ± 0.0015.
GTGACTGTGT: the switch fluorescence ratio worked out at 0.963 ± 0.014.
As to GTGAGATTGC, the switch fluorescence ratio was determined as 0.95675 ± 0.0008.
GTGAGCCAGT: the switch fluorescence ratio was found to be 1.01 ± 0.022.
The figure for GTGAGGAGTA is 1.001 ± 0.0093.
In the case of GTGAGGGGCG, the switch fluorescence ratio came to 0.964 ± 0.035.
Next, GTGAGGGTTT: 0.9758 ± 0.005; GTGAGTGGTG: 0.978 ± 0.015; GTGATATAAG: 0.986 ± 0.031.
Regarding GTGATATGGA, the switch fluorescence ratio turned out to be 0.992 ± 0.014.
On to GTGATCGTCG, for which the switch fluorescence ratio is 1.01 ± 0.017.
Consider GTGATGCAGG, for which the switch fluorescence ratio is 0.98 ± 0.026.
Take GTGATGCTGC: the switch fluorescence ratio worked out at 1.07 ± 0.015.
Consider GTGATTCAGG, for which the switch fluorescence ratio worked out at 0.989 ± 0.029.
For the sequence GTGATTCCGA, the switch fluorescence ratio was 1.02 ± 0.029.
As to GTGATTCTTG, the switch fluorescence ratio came out at 0.9745 ± 0.0022.
In the case of GTGATTGGAG, the switch fluorescence ratio came out at 0.966 ± 0.025.
GTGCATGGGA: the switch fluorescence ratio is 0.997 ± 0.055.
With GTGCCTAGTG, the switch fluorescence ratio amounted to 1.017 ± 0.01.
As to GTGCGCGGCC, the switch fluorescence ratio is 1.01 ± 0.051.
The figure for GTGCTCAGGG is 1.02 ± 0.077; for GTGGAAAGTA it is 0.997 ± 0.011.
GTGGAAATCA: the switch fluorescence ratio was determined as 1.01 ± 0.029.
For GTGGAAATGG, the switch fluorescence ratio is 1.01 ± 0.022.
In the case of GTGGAACCTT, the switch fluorescence ratio was 1.24 ± 0.2.
Take GTGGAAGGCA: the switch fluorescence ratio was 0.9925 ± 0.0025.
Turning to GTGGAAGGGT, the switch fluorescence ratio amounted to 1.02 ± 0.042.
In the case of GTGGAATTTT, the switch fluorescence ratio worked out at 1.01 ± 0.0057.
The figure for GTGGACAAGG is 0.978 ± 0.031.
With GTGGACATTA, the switch fluorescence ratio amounted to 1.01 ± 0.012.
On to GTGGAGTAAG, for which the switch fluorescence ratio was determined as 1.01 ± 0.023.
Next, GTGGATACTA: 1.009 ± 0.0047; GTGGATAGGT: 1.01 ± 0.045; GTGGATATAG: 0.99333 ± 0.00046.
Regarding GTGGATTTGA, the switch fluorescence ratio is 1.01 ± 0.013.
Regarding GTGGCAACAA, the switch fluorescence ratio is 0.984 ± 0.035.
GTGGCCCCGG: the switch fluorescence ratio amounted to 1.02 ± 0.043.
As for GTGGGAAAGT, the switch fluorescence ratio was 1.04 ± 0.015.
For the sequence GTGGGAATGG, the switch fluorescence ratio is 0.9747 ± 0.0072.
As for GTGGGAGCGT, the switch fluorescence ratio is 0.97882 ± 0.00039.
For GTGGGAGGGG, the switch fluorescence ratio turned out to be 1 ± 0.015.
As for GTGGGAGTTG, the switch fluorescence ratio was determined as 0.969 ± 0.04.
On to GTGGGATTGG, for which the switch fluorescence ratio is 1.01 ± 0.027.
As to GTGGGATTTT, the switch fluorescence ratio came out at 0.986 ± 0.062.
On to GTGGGCAGCG, for which the switch fluorescence ratio came to 0.9666 ± 0.0047.
As to GTGGGCCAGC, the switch fluorescence ratio amounted to 0.964 ± 0.082.
Consider GTGGGCCTTT, for which the switch fluorescence ratio was found to be 0.987 ± 0.015.
In the case of GTGGGCTGTT, the switch fluorescence ratio amounted to 1.01 ± 0.06.
In the case of GTGGGGAAAA, the switch fluorescence ratio was 0.994 ± 0.035.
For the sequence GTGGGGCGCA, the switch fluorescence ratio came to 1.01 ± 0.026.
As for GTGGGGCGTG, the switch fluorescence ratio came to 1 ± 0.03.
On to GTGGGGGATT, for which the switch fluorescence ratio is 0.996 ± 0.03.
Regarding GTGGGGGGAA, the switch fluorescence ratio stood at 0.98 ± 0.018.
In the case of GTGGGGGGAT, the switch fluorescence ratio is 0.999 ± 0.023.
Turning to GTGGGGGGCA, the switch fluorescence ratio came to 0.991 ± 0.033.
GTGGGGGGGT: the switch fluorescence ratio was found to be 0.992 ± 0.026.
On to GTGGGGGTAG, for which the switch fluorescence ratio worked out at 0.99 ± 0.032.
Next, GTGGGGTAAG: 0.987 ± 0.014.
With GTGGGGTCGG, the switch fluorescence ratio is 0.979 ± 0.0057.
For the sequence GTGGGGTGTG, the switch fluorescence ratio is 1.01 ± 0.021.
As to GTGGGGTTGG, the switch fluorescence ratio turned out to be 0.981 ± 0.021.
With GTGGGTATGG, the switch fluorescence ratio is 1.002 ± 0.01.
Take GTGGGTATGT: the switch fluorescence ratio is 0.983 ± 0.017.
For the sequence GTGGGTCGTA, the switch fluorescence ratio came out at 0.985 ± 0.046.
For the sequence GTGGGTTATT, the switch fluorescence ratio was found to be 0.999 ± 0.016.
As to GTGGGTTTGC, the switch fluorescence ratio was 1.03 ± 0.03.
For GTGGTAAACG, the switch fluorescence ratio is 1 ± 0.029.

Source of the values: the supplement of paper PMC10126150.
